Data taken from the supplement of paper PMC9112550, “Optimization of the antimicrobial peptide Bac7 by deep mutational scanning” (BMC Biology, 2022).

Test system: Escherichia coli TOP10
Assay: shrunken log2 fold change of peptide-encoding DNA abundance (4.5 h post-induction vs induction); higher = less antimicrobial activity (less host growth inhibition)
Conditions: time post-induction: 4.5 h; library: site-saturation at positions 5, 18, 19, 20
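Also: peptides expressed intracellularly from a pBAD plasmid library in pooled LB shake-flask culture, induced with 0.3% L-arabinose, DNA abundance read by NGS, three biological replicates, DESeq2 with apeglm shrinkage.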

Row | Sequence | shrunken log2 fold change
1 | RRIRQRPPRLPRPRPRPESMPRP | 0.00186
2 | RRIRWRPPRLPRPRPRPRYGPRP | 0.134
3 | RRIRTRPPRLPRPRPRPTRLPRP | 0.126
4 | RRIRCRPPRLPRPRPRPNLAPRP | -0.122
5 | RRIRPRPPRLPRPRPRPETKPRP | 0.00908
6 | RRIRQRPPRLPRPRPRPWTIPRP | -0.142
7 | RRIRMRPPRLPRPRPRPNKEPRP | 0.127
8 | RRIRARPPRLPRPRPRPIWEPRP | 0.473
9 | RRIRTRPPRLPRPRPRPHVTPRP | -0.15
10 | RRIRARPPRLPRPRPRPVWGPRP | 0.383
11 | RRIRCRPPRLPRPRPRPIYYPRP | -0.653
12 | RRIRPRPPRLPRPRPRPWPHPRP | 0.0318
13 | RRIRFRPPRLPRPRPRPYIVPRP | -0.97
14 | RRIRARPPRLPRPRPRPPCLPRP | 0.224
15 | RRIRERPPRLPRPRPRPFLAPRP | 0.0854
16 | RRIRRRPPRLPRPRPRPNSYPRP | -0.116
17 | RRIRSRPPRLPRPRPRPGYAPRP | 0.111
18 | RRIRKRPPRLPRPRPRPNEMPRP | 0.0671
19 | RRIRQRPPRLPRPRPRPPRVPRP | 0.422
20 | RRIRERPPRLPRPRPRPAWYPRP | -0.179

Row | Sequence | shrunken log2 fold change
21 | RRIRYRPPRLPRPRPRPAVCPRP | -0.0135
22 | RRIRSRPPRLPRPRPRPYIFPRP | -0.683
23 | RRIRWRPPRLPRPRPRPKTNPRP | 0.239
24 | RRIRQRPPRLPRPRPRPLWAPRP | 0.00344
25 | RRIRSRPPRLPRPRPRPDNWPRP | -0.39
26 | RRIRCRPPRLPRPRPRPLSKPRP | -0.103
27 | RRIRVRPPRLPRPRPRPYPRPRP | 0.0644
28 | RRIRIRPPRLPRPRPRPNKIPRP | -0.634
29 | RRIRSRPPRLPRPRPRPQGKPRP | 0.0304
30 | RRIRQRPPRLPRPRPRPMIGPRP | 0.0241
31 | RRIRWRPPRLPRPRPRPNYEPRP | -0.222
32 | RRIRMRPPRLPRPRPRPKCNPRP | 0.159
33 | RRIRYRPPRLPRPRPRPVMHPRP | -0.338
34 | RRIRSRPPRLPRPRPRPFETPRP | -0.101
35 | RRIRLRPPRLPRPRPRPGCRPRP | 0.157
36 | RRIRARPPRLPRPRPRPFNSPRP | -0.0353
37 | RRIRYRPPRLPRPRPRPQTEPRP | 0.0019
38 | RRIRARPPRLPRPRPRPFSEPRP | -0.122
39 | RRIRRRPPRLPRPRPRPREYPRP | 0.2
40 | RRIRDRPPRLPRPRPRPWHCPRP | 0.102

Row | Sequence | shrunken log2 fold change
41 | RRIRWRPPRLPRPRPRPLNHPRP | -0.176
42 | RRIRRRPPRLPRPRPRPGGIPRP | 0.0225
43 | RRIRIRPPRLPRPRPRPAHHPRP | -0.176
44 | RRIRARPPRLPRPRPRPIPLPRP | 0.0456
45 | RRIRCRPPRLPRPRPRPGIEPRP | -0.0627
46 | RRIRCRPPRLPRPRPRPAAAPRP | 0.528
47 | RRIRPRPPRLPRPRPRPGFGPRP | 0.752
48 | RRIRARPPRLPRPRPRPDWDPRP | 0.341
49 | RRIRYRPPRLPRPRPRPDSFPRP | 0.0025
50 | RRIRLRPPRLPRPRPRPMPDPRP | -0.00255
51 | RRIRHRPPRLPRPRPRPRDSPRP | 0.0922
52 | RRIRLRPPRLPRPRPRPCIHPRP | -0.392
53 | RRIRMRPPRLPRPRPRPFPRPRP | -0.0223
54 | RRIRSRPPRLPRPRPRPPLAPRP | 0.812
55 | RRIRVRPPRLPRPRPRPMMPPRP | -0.302
56 | RRIRVRPPRLPRPRPRPYVLPRP | -1.12
57 | RRIRYRPPRLPRPRPRPATIPRP | -1.16
58 | RRIRWRPPRLPRPRPRPTKIPRP | 0.0922
59 | RRIRCRPPRLPRPRPRPSSKPRP | -0.48
60 | RRIRSRPPRLPRPRPRPPLKPRP | 0.0467
